Source: publication doi:10.1101/2020.08.11.244863

Columns and labels:
[1] = target: SARS-CoV-2 Nsp15 H235A (SARS-CoV-2); test: cryo-EM structure
[2] = target: SARS-CoV-2 Nsp15 H235A (SARS-CoV-2); test: SEC
[3] = target: SARS-CoV-2 Nsp15 H250A (SARS-CoV-2); test: SEC

SARS-CoV-2 Nsp15 H235A (enzyme) was tested, and the stoichiometry N [1] was 6 and the stoichiometry N [2] was 6.
With SARS-CoV-2 Nsp15 H250A (enzyme) the stoichiometry N [3] was 6.
